In the assay the target is autoinducing peptide 1 (AIP1), active (cyclized), N-terminally biotinylated (Staphylococcus aureus).

In the case of “apoB48-containing lipoprotein particles (apoB48-LP) from serum of ApoE-/- mice (natural protein)”, the IC50 of inhibition of agr::P3-yfp promoter activation in S. aureus AH1677 (agr-I) cultured with 50 nM exogenous AIP1 and increasing concentrations of lipoprotein is 3.5 nM.
With human LDL (apoB100) (natural protein) the figure was 2.3 nM.

These data come from paper PMC4420250.
